T1: CD81 (UniProt P60033 1-236, limits assumed)
T1 construct: whole, on cells; also called CD81 receptor
T1 sequence (looked up): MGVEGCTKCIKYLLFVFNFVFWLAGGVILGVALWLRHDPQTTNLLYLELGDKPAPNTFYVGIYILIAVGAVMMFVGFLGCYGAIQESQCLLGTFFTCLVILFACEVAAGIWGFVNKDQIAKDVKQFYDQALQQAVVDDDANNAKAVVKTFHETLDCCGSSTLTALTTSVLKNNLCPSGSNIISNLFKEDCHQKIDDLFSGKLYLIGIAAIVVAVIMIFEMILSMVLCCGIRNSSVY

B1: CD81K04 HC GG-05-hVH_1_18 / LC JA_GG-10-hVK_4_1 (antibody, V domains shown)
VH: QVQLVQSGAEVKKPGASVKVSCKASGYTFSSSWMNWVRQAPGQGLEWMGRIYSGDGDAIYAQKLQGRVTMTTDTSTSTAYMELRSLRSDDTAVYYCAREGKTGDLLLRSWGQGTLVTVSS
VL: DIVMTQSPDSLAVSLGERATINCRASKSVSTSIYSYMHWYQQKPGQPPKLLIKYASYLESGVPDRFSGSGSGTDFTLTISSLQAEDVAVYYCEHSREFPFTFGQGTKLEIK
notes: human constant region
B2: CD81K04 HC GG-07-hVH_5_51 / LC CD81K04 (antibody, V domains shown)
VH: EVQLVQSGAEVKKPGESLKISCKGSGYSFSSSWMCWVRQMPGKGLEWMGCIYSGDGDAIYSPSFQGQVTISADKSISTAYLQLSSLKASDTAMYYCAREGKTGDLLLRSWGQGTLVTVSS
VL: DIVLTQSPASLSVSLGQRATISCRASKSVSTSIYSYMHWYQQKPGQPPKLLIKYASYLESGVPARFSGSGSGTDFTLNIHPVEEEDAATYYCEHSREFPFTFGTGTKLEIK
notes: human constant region
B3: CD81K04 HC GG-01-hVH_5_51 / LC GG-06-hVK_1_39 (antibody, V domains shown)
VH: EVQLVQSGAEVKKPGESLKISCKGSGYSFSSSWMNWVRQMPGKGLEWMGRIYSGDGDAIYSPSFQGQVTISADKSISTAYLQLSSLKASDTAMYYCAREGKTGDLLLRSWGQGTLVTVSS
VL: DIQMTQSPSSLSASVGDRVTITCRASKSVSTSIYSYLNWYQQKPGKAPKLLIYYASYLQSGVPSRFSGSGSGTDFTLTISSLQPEDFATYYCQHSREFPYTFGQGTKLEIK
notes: human constant region
B4: CD81K04 HC GG-01-hVH_5_51 / LC JA_GG-07-hVK_7_3 (antibody, V domains shown)
VH: EVQLVQSGAEVKKPGESLKISCKGSGYSFSSSWMNWVRQMPGKGLEWMGRIYSGDGDAIYSPSFQGQVTISADKSISTAYLQLSSLKASDTAMYYCAREGKTGDLLLRSWGQGTLVTVSS
VL: DIVLTQSPASLAVSPGQRATITCRASKSVSTSIYSYMHWYQQKPGQPPKLLIKYASNKDTGVPARFSGSGSGTDFTLTINPVEANDAANYYCLHSREFPYTFGQGTKLEIK
notes: human constant region
B5: CD81K04 HC GG-01-hVH_5_51 / LC GG-05-hVK_3_11 (antibody, V domains shown)
VH: EVQLVQSGAEVKKPGESLKISCKGSGYSFSSSWMNWVRQMPGKGLEWMGRIYSGDGDAIYSPSFQGQVTISADKSISTAYLQLSSLKASDTAMYYCAREGKTGDLLLRSWGQGTLVTVSS
VL: EIVLTQSPATLSLSPGERATLSCRASKSVSTSIYSYLHWYQQKPGQAPRLLIYYASNRETGIPARFSGSGSGTDFTLTISSLEPEDFAVYYCQHSREFPFTFGQGTKLEIK
notes: human constant region
B6: CD81K04 HC GG-01-hVH_5_51 / LC GG-02-hVK_4_1 (antibody, V domains shown)
VH: EVQLVQSGAEVKKPGESLKISCKGSGYSFSSSWMNWVRQMPGKGLEWMGRIYSGDGDAIYSPSFQGQVTISADKSISTAYLQLSSLKASDTAMYYCAREGKTGDLLLRSWGQGTLVTVSS
VL: DIVMTQSPDSLAVSLGERATINCKSSKSVSTSIYSYMHWYQQKPGQPPKLLIYYASYRESGVPDRFSGSGSGTDFTLTISSLQAEDVAVYYCQHSREFPFTFGQGTKLEIK
notes: human constant region
B7: CD81K04 HC GG-01-hVH_5_51 / LC JA_GG-09-hVK_4_1 (antibody, V domains shown)
VH: EVQLVQSGAEVKKPGESLKISCKGSGYSFSSSWMNWVRQMPGKGLEWMGRIYSGDGDAIYSPSFQGQVTISADKSISTAYLQLSSLKASDTAMYYCAREGKTGDLLLRSWGQGTLVTVSS
VL: DIVMTQSPDSLAVSLGERATINCKSSKSVSTSIYSYMHWYQQKPGQPPKLLIKYASTRESGVPDRFSGSGSGTDFTLTISSLQAEDVAVYYCEHSREFPFTFGQGTKLEIK
notes: human constant region
B8: CD81K04 HC GG-01-hVH_5_51 / LC JA_GG-10-hVK_4_1 (antibody, V domains shown)
VH: EVQLVQSGAEVKKPGESLKISCKGSGYSFSSSWMNWVRQMPGKGLEWMGRIYSGDGDAIYSPSFQGQVTISADKSISTAYLQLSSLKASDTAMYYCAREGKTGDLLLRSWGQGTLVTVSS
VL: DIVMTQSPDSLAVSLGERATINCRASKSVSTSIYSYMHWYQQKPGQPPKLLIKYASYLESGVPDRFSGSGSGTDFTLTISSLQAEDVAVYYCEHSREFPFTFGQGTKLEIK
notes: human constant region
B9: CD81K04 HC GG-01-hVH_5_51 / LC JA_GG-08-hVK_4_1 (antibody, V domains shown)
VH: EVQLVQSGAEVKKPGESLKISCKGSGYSFSSSWMNWVRQMPGKGLEWMGRIYSGDGDAIYSPSFQGQVTISADKSISTAYLQLSSLKASDTAMYYCAREGKTGDLLLRSWGQGTLVTVSS
VL: DIVMTQSPDSLAVSLGERATINCKSSKSVSTSIYSYMHWYQQKPGQPPKLLIKYASYLESGVPDRFSGSGSGTDFTLTISSLQAEDVAVYYCEHSREFPFTFGQGTKLEIK
notes: human constant region
B10: CD81K04 HC GG-01-hVH_5_51 / LC GG-04-hVK_4_1 (antibody, V domains shown)
VH: EVQLVQSGAEVKKPGESLKISCKGSGYSFSSSWMNWVRQMPGKGLEWMGRIYSGDGDAIYSPSFQGQVTISADKSISTAYLQLSSLKASDTAMYYCAREGKTGDLLLRSWGQGTLVTVSS
VL: DIVMTQSPDSLAVSLGERATINCKSSKSVSTSIYSYLAWYQQKPGQPPKLLIYYASTRESGVPDRFSGSGSGTDFTLTISSLQAEDVAVYYCQHSREFPYTFGQGTKLEIK
notes: human constant region
B11: CD81K04 HC GG-01-hVH_5_51 / LC GG-03-hVK_4_1 (antibody, V domains shown)
VH: EVQLVQSGAEVKKPGESLKISCKGSGYSFSSSWMNWVRQMPGKGLEWMGRIYSGDGDAIYSPSFQGQVTISADKSISTAYLQLSSLKASDTAMYYCAREGKTGDLLLRSWGQGTLVTVSS
VL: DIVMTQSPDSLAVSLGERATINCKSSKSVSTSIYSYLAWYQQKPGQPPKLLIYYASYRESGVPDRFSGSGSGTDFTLTISSLQAEDVAVYYCQHSREFPFTFGQGTKLEIK
notes: human constant region
B12: CD81K13 HC CD81K13 / LC 1c-hVK_3_15 (antibody, V domains shown)
VH: EVRLHQSAAQLVQPGASVRLSCTTSGFNFKDSYLHWVKQRPAQGLEWIGRIDTGNGNVKFDPKFQDKATITTDIPSMTAYLHLSNLTSEDTAVYYCVPYGYGFHSWGDGTTLTVSS
VL: EIVMTQSPATLSVSPGERATLSCRASENIYRTLAWYQQKPGQAPRLLIYGATTLADGIPARFSGSGSGTEFTLTISSLQSEDFGVYYCQHFWGTPWTFGQGTKVEIK
notes: human constant region
B13: CD81K13 HC CD81K13 / LC 05-hVK_1_39 (antibody, V domains shown)
VH: EVRLHQSAAQLVQPGASVRLSCTTSGFNFKDSYLHWVKQRPAQGLEWIGRIDTGNGNVKFDPKFQDKATITTDIPSMTAYLHLSNLTSEDTAVYYCVPYGYGFHSWGDGTTLTVSS
VL: DIQMTQSPSSLSASVGDRVTITCRASENIYRTLAWYQQKPGKAPKLLIYAATTLASGVPSRFSGSGSGTDFTLTISSLQPEDFATYYCQHFWGTPWTFGQGTKVEIK
notes: human constant region
B14: CD81K13 HC CD81K13 / LC 01-hVK_3_15 (antibody, V domains shown)
VH: EVRLHQSAAQLVQPGASVRLSCTTSGFNFKDSYLHWVKQRPAQGLEWIGRIDTGNGNVKFDPKFQDKATITTDIPSMTAYLHLSNLTSEDTAVYYCVPYGYGFHSWGDGTTLTVSS
VL: EIVMTQSPATLSVSPGERATLSCRASENIYRTLAWYQQKPGQAPRLLIYGATTRATGIPARFSGSGSGTEFTLTISSLQSEDFGVYYCQHFWGTPWTFGQGTKVEIK
notes: human constant region
B15: CD81K13 HC CD81K13 / LC 1b-hVK_3_15 (antibody, V domains shown)
VH: EVRLHQSAAQLVQPGASVRLSCTTSGFNFKDSYLHWVKQRPAQGLEWIGRIDTGNGNVKFDPKFQDKATITTDIPSMTAYLHLSNLTSEDTAVYYCVPYGYGFHSWGDGTTLTVSS
VL: EIVMTQSPATLSVSPGERATLSCRASENIYRTLAWYQQKPGQAPRLLIYGATTLADGIPARFSGSGSGTEFTLTISSLQSEDFAVYYCQHFWGTPWTFGQGTKVEIK
notes: human constant region

The source of these data is US20200377590A1 (Hoffmann-La Roche, published 2020).
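Further: antibody binding to HuH7 cells expressing CD81 versus a CD81-negative HuH7 control line, bound antibody detected by secondary reagent, absorbance at 450 nm with 620 nm reference.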

The target in the first assay is T1, CD81. Briefly: cell ELISA. In general terms: An ELISA detects its analyte on a solid surface through an enzyme-linked reagent.
Protocol: For the binding cell ELISA assay, HuH7-Rluc-H3 (positive cell line expressing CD81) and HuH7-Rluc-L1 (negative control cell line) were propagated in F-12 DMEM medium with 10% FCS at 37° C. and 5% CO₂. On day 1, the cells were trypsinized at approximately 90% confluence and resuspended at 4×10⁵ cells/mL. […] On day 2, the antibody samples to be tested were prepared in a separate polypropylene round bottom plate with a twofold desired concentration with a final volume of 120 μl. All of the assay samples were diluted in cell culture medium. […] After fixation, each well was washed 3 times with 200 μL PBS/0.05% Tween. The secondary incubation step for detection of bound anti-CD81 antibodies was performed for 2 h at room temperature on a reciprocal shaker. […] Each well was washed three times with 200 μL PBS/0.05% Tween to remove unbound antibodies. […] The absorbance was read using the ELISA Tecan reader at 450 nm with 620 nm reference wavelength.
For B1, the ELISA data amounted to 0.841.
Regarding B2, the ELISA data was found to be 0.233.
In turn, B3 had an ELISA data of 0.089.
B4: the ELISA data was 0.061.
Same read-out and setting: the result for B5 reads 0.073; that for B6, 0.081.
With B7, the ELISA data amounted to 0.148.
B8 returned an ELISA data of 0.064.
For B9, the ELISA data worked out at 0.164.
The same measure, in the same setting: the result for B10 reads 0.186; that for B11, 0.129.

The next assay concerns the target T1, CD81. Briefly: cell ELISA. The source holds these as a separate data set.
The molecule B12 gave an ELISA data of 0.95.
B13 gave an ELISA data of 0.886.
On the same count and under the same terms, the result for B14 reads 1.01; that for B15, 0.86.
